Key:
Format in all cases: cell-based, human
[1] = test system: CD40, CD80, CD83, CD86, HLA-DR and CCR7 on DCs; assay: Expression of maturation markers by DCs
Method: Antibodies. Allophycocyanin-conjugated antibody to CCR-7 (150503) was purchased from R&D Systems. Unconjugated (10 μg/mL for blocking experiments) or phycoerythrin-conjugated antibody to OX40L (11C3.1) was from Biolegend. Blocking antibody to IL-4 (8F12; 10 μg/mL) was from Acris. Antibodies to human Vβ chains covering 70% of the repertoire (10Test Beta Mark; Beckman Coulter) were used according to the manufacturer's instructions. Fluorescein isothiocyanate-conjugated antibody to IL-12p35/IL-12p70 (B-T21) and IFNAR1 (EP899Y) were from Abcam. Phycoerythrine-conjugated antibodies to IL-12p40/IL-12p70 (C8.6), IL-10 (B-T10), CD203c (FR3-16A11) were from Miltenyi Biotec. Blocking antibody to HLA-DQ (SPVL3; 20 μg/mL) was from NeoMarkers. […]
(§1) Dendritic cell preparation and activation. […] Immature DCs were harvested on day 5 and matured using poly(I:C) at 5 μg/mL/10^6 DCs (Amersham) Secretion of IL-12p70, TNFα, IL-1β, IL-6, IL-8 and IL-10 was assessed on both immature and mature DCs using the Human Inflammatory Cytokine Cytometric Bead Array (BD Pharmingen).
We next evaluated whether DCs could be involved in the polarization of MMP-2-specific CD4^+ T cells.

OX40L expression on DCs = OX40L expression on DCs by surface staining; conditions: immature and poly(I:C)-matured DCs, n=9, 24 h
Method: Immature and poly(I:C)-matured DCs were incubated with active or HI MMP-2 (0.5 μg/mL or 5 μg/mL) for 24 h. MMP-2 enzymatic activity was controlled (FIG. 13C-D). OX40L expression was assessed by surface staining (A) Histogram plots are shown for representative donor HD1228. Isotype control is represented in tinted gray. (B) Mean fluorescent intensities are represented for all 9 donors tested. […] P values≦0.0167 (*) were considered statistically significant using a Bonferroni correction for 3 comparisons for each DC type. See also FIG. 12.
Dendritic cell preparation and activation. PBMCs were purified from healthy—(HD) or cord blood—(CB) donors and plated at 40×10^6 cells/10 mL/dish in complete IMDM with 5% PHS. Cells were allowed to adhere for 2 h at 37° C. Non-adherent cells were removed. The monocyte-enriched fraction was supplemented with 100 UI/mL rhGMCSF and 300 UI/mL rhIL-4 (R&D Systems) on days 0, 2 and 4. Immature DCs were harvested on day 5 and matured using poly(I:C) at 5 μg/mL/10^6 DCs (Amersham) Secretion of IL-12p70, TNFα, IL-1β, IL-6, IL-8 and IL-10 was assessed on both immature and mature DCs using the Human Inflammatory Cytokine Cytometric Bead Array (BD Pharmingen).

[2] = test system: phosphorylated (Y701) STAT1; assay: Intracellular staining of phosphorylated (Y701) STAT1 in DCs; conditions: DCs preincubated 1 h (5 μg/mL) prior to poly(I:C), 3 h
Method: Immature DCs were incubated with MMP-2 (0.5 μg/mL or 5 μg/mL) and poly(I:C)-matured 1 h later. IL-12 levels were measured 16 h later. (A) Results are represented as a percentage of IL-12p70 levels, measured by CBA, produced when DCs were incubated with poly(I:C) only (n=11). (B) For intracellular staining of IL-12p35 and IL-12p40 chains, Brefeldin A was added 4 h after poly(I:C) activation and cells were stained after an additional 12 h incubation. Numbers in the upper right quadrants are the percentages of each population for a representative donor (n=3). (C,D) Immature DCs were incubated with MMP-2 for 1 h (5 μg/mL) before poly(I:C) maturation. Intracellular staining of phosphorylated (Y701) STAT1 (P-STAT1) was performed 3 h later. A representative donor (C) and results for all 3 donors (D) are shown. […] (E) Immature DCs were incubated with MMP-2 and poly(I:C)-matured 1 h later. IFNβ levels were measured by ELISA 16 h later. Results are represented as a percentage of IFNβ levels produced when DCs were incubated with poly(I:C) only (n=9). […] IFNAR1 protein expression was detected the next day by Western blot analysis using a rabbit monoclonal antibody. […]
Intracellular staining T-bet and GATA-3 expression was measured on resting T cells. […] Cytokine production by T cells was also assessed by intracellular staining T cells were stimulated with 2 μM overlapping peptides. […]

[3] = test system: IL-12p70 production by DCs; assay: IL-12p70 production by poly(I:C)-matured DCs (CBA); conditions: DCs stimulated with poly(I:C)
Method: Immature DCs were incubated with MMP-2 (0.5 μg/mL or 5 μg/mL) and poly(I:C)-matured 1 h later. IL-12 levels were measured 16 h later. (A) Results are represented as a percentage of IL-12p70 levels, measured by CBA, produced when DCs were incubated with poly(I:C) only (n=11). (B) For intracellular staining of IL-12p35 and IL-12p40 chains, Brefeldin A was added 4 h after poly(I:C) activation and cells were stained after an additional 12 h incubation. Numbers in the upper right quadrants are the percentages of each population for a representative donor (n=3). (C,D) Immature DCs were incubated with MMP-2 for 1 h (5 μg/mL) before poly(I:C) maturation. Intracellular staining of phosphorylated (Y701) STAT1 (P-STAT1) was performed 3 h later. A representative donor (C) and results for all 3 donors (D) are shown. […] (E) Immature DCs were incubated with MMP-2 and poly(I:C)-matured 1 h later. IFNβ levels were measured by ELISA 16 h later. Results are represented as a percentage of IFNβ levels produced when DCs were incubated with poly(I:C) only (n=9). (F,G) 10^6DCs/lane were treated with 0.1 μg MMP-2 or controls. Poly(I:C) was added 1 h later. IFNAR1 protein expression was detected the next day by Western blot analysis using a rabbit monoclonal antibody. A representative donor (F) and results for all 7 donors (G) are shown. (H) The rhIFNAR1 (5 μg; ≈110 kD) was incubated overnight with 0.3 μg MMP-2 before performing Western blot analysis for IFNAR1. The second band (around 90 kD) and the third band (25 kD) very likely correspond to either a degraded form of the protein still recognized by the antibody or a contaminant present in the commercial protein preparation and non-specifically recognized by the antibody. MMP-2 enzymatic activity was controlled (FIG. 13C-D). […]
as §1

B1: inactivated MMP-2: MMP-2 enzyme inactivated either by heating or by addition of the MMP-2 inhibitor III; mode not stated at the place (protein, listed as Homo sapiens)
chain: MEALMARGALTGPLRALCLLGCLLSHAAAAPSPIIKFPGDVAPKTDKELAVQYLNTFYGCPKESCNLFVLKDTLKKMQKFFGLPQTGDLDQNTIETMRKPRCGNPDVANYNFFPRKPKWDKNQITYRIIGYTPDLDPETVDDAFARAFQVWSDVTPLRFSRIHDGEADIMINFGRWEHGDGYPFDGKDGLLAHAFAPGTGVGGDSHFDDDELWTLGEGQVVRVKYGNADGEYCKFPFLFNGKEYNSCTDTGRSDGFLWCSTTYNFEKDGKYGFCPHEALFTMGGNAEGQPCKFPFRFQGTSYDSCTTEGRTDGYRWCGTTEDYDRDKKYGFCPETAMSTVGGNSEGAPCVFPFTFLGNKYESCTSAGRSDGKMWCATTANYDDDRKWGFCPDQGYSLFLVAAHEFGHAMGLEHSQDPGALMAPIYTYTKNFRLSQDDIKGIQELYGASPDIDLGTGPTPTLGPVTPEICKQDIVFDGIAQIRGEIFFFKDRFIWRTVTPRDKPMGPLLVATFWPELPEKIDAVYEAPQEEKAVFFAGNEYWIYSASTLERGYPKPLTSLGLPPDVQRVDAAFNWSKNKKTYIFAGDKFWRYNEVKKKMDPGFPKLIADAWNAIPDNLDAVVDLQGGGHSYFFKGAYYLKLENQSLKSVKFGSIKSDWLGC
modifications: heat or inhibitor inactivated
B1 was tested, and the “expression levels of maturation markers CD40, CD80, CD83, CD86, HLA-DR and CCR7” value [1] was “not significantly affected”, the “OX40L expression on DCs” value (OX40L expression on DCs) was “significantly increased” and the STAT1 phosphorylation [2] was “not”. For the same molecule, the “reduction in IL-12” value [3] was “not observed”.

Source: patent US9395368B2, “Methods, agents and peptides for inducing an immune response to matrix metalloproteinase-2 expressing tumors” (New York University, priority 2010, dated 2016)
